Kd and fold decrease in peptide probe binding affinity against wild type data for three substances are collected here from paper PMC12413468.

In this test the target is Fluorescent probe peptide NH3+-NLVGRF-[DAP-FAM]-VSPVPE-COO- (human). Nature of the test: fluorescence polarisation.

Chain of His6-tagged OSR1 CCT domain (human OSR1 433–527) (O95747 433-527): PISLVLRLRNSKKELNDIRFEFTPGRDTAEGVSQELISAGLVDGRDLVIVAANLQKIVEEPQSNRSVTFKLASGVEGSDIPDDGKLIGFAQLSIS

Regarding “His6-tagged OSR1 CCT domain (human OSR1 433–527) (from UniProt O95747 433-527) (domain or fragment)”, the Kd (commonly a measure of binding affinity in units of concentration) was found to be 1.5 µM.

For “His6-tagged SPAK CCT domain (mouse SPAK 459–556) (from UniProt Q9Z1W9 459-556) (domain or fragment)”, the Kd stood at 0.67 µM.

In turn, “Purified SPAK CCT domain D477Q (domain or fragment)” registered a fold decrease in peptide probe binding affinity against wild type of 50 fold.
